± gives the uncertainty stated by the source.
Experiment: amyloid nucleation score (Sup35N fusion, yeast selection) (log enrichment); library NNK2; higher = more nucleation; inactive = no reads after selection
How it was run: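 The nucleation score is the DiMSum log enrichment of output over input reads, centred on the mode score of non-aggregating sequences. Only sequences with 100 or more input reads were scored, using Illumina sequencing of input and output plasmid inserts. Psi-negative yeast expressing Sup35N fused to peptides of 20 random codons were induced 24 hours with 100 μM copper sulfate and grown 7 days at 30°C on medium lacking adenine and uracil.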

In order of falling amyloid nucleation score:
1. MNHISLFFRSEVQVCGVFC  8.609 ± 0.052
2. MIYSVMFNVNGACTYNCRII  7.478 ± 0.055
3. MLALLCVNNWEGCYWYVGSV  6.827 ± 0.063
4. MMFILLYKTFCAGEWAGGMY  6.053 ± 0.04
5. MNACSQGVSQSSDFQL  5.08 ± 0.066
6. MLVPFRVESMSGTRTCKVTV  4.96 ± 0.08
7. MMGECNFCSIGRH  4.83 ± 0.078
8. MNVYYHVGWNGCYSGVWRAE  4.818 ± 0.043
9. NCETLCVLVGAQYC  4.13 ± 0.049
10. NCFFITGGNGYNAVLLKYIC  3.83 ± 0.04
11. MSFFYDMEEWRMCLRLARYR  3.82 ± 0.07
12. NCLVISFKLWHNLMTVGYGD  3.66 ± 0.079
13. MKKWWPVICFGWSQVSFRVE  3.21 ± 0.16
14. MSQGSKIRVTWARSGGTRRL  3.08 ± 0.15
15. MTCRRCNNAMWSGLLRLKIY  2.97 ± 0.17
16. MSGICPDQSSLYIEDTSIWL  2.96 ± 0.068
17. NAQYGRCSLWCPCPTVWTA  2.24 ± 0.25
18. MTRVSQFVVVP  1.69 ± 0.13
19. MLVRIYLYRKRSYMVRSALM  1.52 ± 0.12
20. MLGVSQCVVMVVAGWA  1.4 ± 0.16
21. MTVLV  1.12 ± 0.26
22. MRHSRHFVQYGWFDCGQSGS  1.02 ± 0.29
23. MIWLHIILMLMLVCRVLSE  0.914 ± 0.46
24. MWSLRYTVGLEDCG  0.897 ± 0.34
25. MSPYLWYGWLEAGLLGIRTL  0.871 ± 0.34
26. NARGHVNV  0.786 ± 0.44
27. MVFKRPHVWFDTTTFEFGMV  0.732 ± 0.43
28. MMIFLGLTSFKFLMSAVNTM  0.628 ± 0.38
29. NACPVCSRW  0.589 ± 0.38
30. MTIGFNAIYHQFRVTRCLVT  0.545 ± 0.53
31. MPQSYFLGSRIKRFKKSRLV  0.496 ± 0.37
32. MYFNSRSNYEYAYCWLFIVF  0.492 ± 0.44
33. MWLGLTRRMVITSCYN  0.461 ± 0.36
34. MYWLFR  0.461 ± 0.25
35. MNMFMCFNGHNKRIVVKSKL  0.446 ± 0.42
36. MSFRSRPGLDDGWMIRWRGR  0.446 ± 0.49
37. MKGACLRGYEVLSMGQSTSY  0.404 ± 0.8
38. MISESF  0.403 ± 0.56
39. NCGKLHQF  0.403 ± 0.5
40. MLKQSGDSVAHCLGKTGSQM  0.371 ± 0.35
41. MTLIAVDSLSYLWANDNRRG  0.353 ± 0.36
42. MSKDTVMPWERIKEVLHCLG  0.342 ± 0.3
43. NALADRRFTISPRIFAYLLL  0.312 ± 0.65
44. NAHKTNLVQTLVNRLIELMD  0.223 ± 0.29
45. MRRTPFCVWKHIYRM  0.182 ± 1.1
46. MNFCNHPLMDLMVSDLAWWM  0.112 ± 0.37
47. NCMPMEYNDGENAVMCGFNG  0.11 ± 0.27
48. NASPFSHKYHEWFEVEGSSI  0.108 ± 0.65
49. MQLNNG  0.075 ± 0.21
50. MVIYHVPQYVRYWQP  0.017 ± 0.63
51. MLRHSANMIKMLKHTTTND  0.004 ± 0.45
52. MVFFLLQLATAAVFSF  -0.073 ± 1
53. NARLRYGSL  -0.101 ± 0.37
54. MLRFFCADWCSLGVCFTLGV  -0.137 ± 1.1
55. MMSSRILGVFDSSSTICVRH  -0.218 ± 0.38
56. MPLQFDPVWFILNTLLRPHA  -0.228 ± 0.42
57. MIWPCMVP  -0.237 ± 1
58. MNYTT  -0.242 ± 0.54
59. MLCVFRVLPMLNWY  -0.257 ± 0.48
60. NAYVEIIIWASRDFMYCRHM  -0.262 ± 0.79
61. MLVLSSFNCRLFKINRLR  -0.268 ± 0.45
62. MVSFGSGGELFFMHTQFSAR  -0.311 ± 0.64
63. MTFVHVSNMWDRNEGICGDE  -0.323 ± 0.41
64. MNHWGMLRLGSWYRITYA  -0.367 ± 0.38
65. MLKSHVI  -0.374 ± 0.32
66. MLTFF  -0.409 ± 0.76
67. MSYQSINKKGFVVFGRKLLA  -0.512 ± 0.39
68. MLLFSLWGNYAGQVPWDRVG  -0.513 ± 0.48
69. MSFVDEYCGGEVTISEPSMS  -0.545 ± 0.76
70. MSICANLVLWWLDL  -0.607 ± 0.63
71. MMHEYAAGGLSSGLFWDMSG  -0.623 ± 0.63
72. MYGTTRLVLWAVIDWFEGVG  -0.718 ± 0.49
73. NAPLCFKHKSRL  -0.995 ± 0.44
74. MYCYRNFLSDDINRGGALVM  -0.998 ± 0.74
75. MKFKPDLVLFRYVHVKVYLE  -1.01 ± 1.1
76. NATCA  -1.01 ± 0.45
77. MYKGLISLNCVTSGTRSG  -1.07 ± 1.1
78. MKKFLGWRYELNCWVLYNSG  -1.16 ± 0.76
79. NCEPELLAVLSRCFSSIWVS  -1.27 ± 0.78

For MITWCHIVALSNVGTVVSYN, the amyloid nucleation score was “inactive”.
With MTALSTVDWRYSAHFSS the amyloid nucleation score was “inactive”.
For MTCSTWMQLVRYTSVICILT, the amyloid nucleation score was “inactive”.
For MVAFNTFSD, the amyloid nucleation score was “inactive”.
In the case of MYRVLSIKWDRHLTRVHIAW, the amyloid nucleation score is reported as “inactive”.
With MYYYSSCKNVQKSHPSSRMQ the amyloid nucleation score was “inactive”.
